Laboratory results reported in patent US20240301067A1 (WUXI BIOLOGICS IRELAND, published 2024).

T1: Mouse PD-1 on 293F cells (mouse, UniProt Q02242 25-288)
T1 construct: whole, on cells; also called 293F.mPro1.B4; WBP305.293F.mPro1.B4
T1 sequence (looked up): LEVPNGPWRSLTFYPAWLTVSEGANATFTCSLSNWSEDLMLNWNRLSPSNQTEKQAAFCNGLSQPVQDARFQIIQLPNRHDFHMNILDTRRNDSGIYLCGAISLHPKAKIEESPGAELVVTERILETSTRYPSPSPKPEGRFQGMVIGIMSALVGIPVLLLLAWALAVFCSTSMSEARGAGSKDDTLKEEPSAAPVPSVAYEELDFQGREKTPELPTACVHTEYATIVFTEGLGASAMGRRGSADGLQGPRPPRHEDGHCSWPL

T2: Human BTLA extracellular domain, His (human, UniProt Q7Z6A9 31-157)
T2 construct: extracellular domain; Bought; also called hBTLA.ECD.His; not shown: His tag
T2 sequence (looked up): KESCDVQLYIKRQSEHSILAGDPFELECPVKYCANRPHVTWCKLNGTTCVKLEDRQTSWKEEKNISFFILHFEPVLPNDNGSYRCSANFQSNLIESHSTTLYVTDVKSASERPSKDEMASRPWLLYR

T3: Human CTLA-4 extracellular domain, His tag (human, UniProt P16410 36-161)
T3 construct: extracellular domain; also called hCTLA-4.ECD.His; not shown: 6xhis tag at C-terminus
T3 sequence (looked up): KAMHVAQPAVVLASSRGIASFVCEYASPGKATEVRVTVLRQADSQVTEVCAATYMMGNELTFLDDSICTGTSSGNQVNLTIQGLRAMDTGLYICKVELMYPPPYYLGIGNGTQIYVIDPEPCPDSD

T4: Human ICOS extracellular domain, mFc tag (human, UniProt Q9Y6W8 21-140)
T4 construct: extracellular domain; also called hICOS.ECD.mFc; not shown: mouse Fc tag at C-terminus
T4 sequence (looked up): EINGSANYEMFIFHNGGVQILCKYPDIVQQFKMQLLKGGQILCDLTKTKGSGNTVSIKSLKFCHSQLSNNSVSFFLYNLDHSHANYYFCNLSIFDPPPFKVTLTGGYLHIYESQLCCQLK


What was measured:
Mouse PD-1 on 293F cells = molecular target: T1, Mouse PD-1 on 293F cells; test: FACS competition on 293F.mPro1.B4 cells; competitor mProL1.ECD.mFc 5 µg/mL
Description: The mouse PD-1 transfected 293F.mPro1.B4 cells were transferred into 96-well U-bottom plates at a density of 2×10⁵ cells/well. Various concentrations of anti-PD-1 antibodies (3-fold serially diluted from 1334 nM to 0.07 nM) and constant concentration of mouse Fc tagged mouse PD-L1 ECD protein (mProL1.ECD.mFc) (5 μg/mL) were pre-mixed and incubated with cells at 4° C. for 1 hour. After washing with 1×PBS/1% BSA, the secondary antibody PE-labeled goat anti-mouse IgG was applied and incubated with cells at 4° C. for 1 hour. The cells were then washed and resuspended in 1×PBS/1% BSA. MFI of the cells was measured by a flow cytometer and analyzed by FlowJo (version 7.6.1).

[1] = molecular target: T2, Human BTLA extracellular domain, His; test: ELISA, coated antigen 1 ug/mL, antibody 100 nM, HRP goat anti-human IgG
Description: (§1) Plates were pre-coated with 1 μg/mL, 100 μL per well of hPD-1.ECD.mFc, hCD28.ECD.mFc, hCTLA-4.ECD.His, hICOS.ECD.mFc or hBTLA.ECD.His at 4° C. overnight. After 1-hour blocking using 200 μL of 1×PBS/2% BSA, testing antibodies were added to the plates at a concentration of 100 nM. The plates were incubated at ambient temperature for 1 hour. The binding of the antibodies to the immobilized proteins was detected by HRP-labeled goat anti-human IgG antibody. The color was developed by dispensing 100 μL of TMB substrate, and then stopped by 100 μL of 2N HCl. The absorbance was read at 450 nm and 540 nm using a microplate spectrophotometer.

[2] = molecular target: T3, Human CTLA-4 extracellular domain, His …; test: as above
Description: as §1

[3] = molecular target: T5, Human CD28 extracellular domain, mFc tag (human, UniProt P10747 19-152); test: as above
T5 construct: extracellular domain; also called hCD28.ECD.mFc; not shown: mouse Fc tag at C-terminus
Description: as §1

[4] = molecular target: T4, Human ICOS extracellular domain, mFc tag; test: as above
Description: as §1

[5] = molecular target: T6, Human PD-1 on CHO-S cells (human, UniProt Q15116 25-288); test: FACS competition on CHO-S.hPro1.C6 cells; competitor hProL1.ECD.mFc 5 µg/mL
T6 construct: whole, on cells; also called CHO-S.hPro1.C6; WBP305.CHO-S.hPro1.C6
Description: The human PD-1 transfected CHO-S.hPro1.C6 cells were transferred into 96-well U-bottom plates at a density of 2×10⁵ cells/well. Various concentrations of antibodies (4-fold serially diluted from 133.3 nM to 0.008 nM) and constant concentration of mouse Fc tagged PD-L1 ECD protein (hProL1.ECD.mFc) (5 μg/mL) were pre-mixed and incubated with cells at 4° C. for 1 hour. After washing with 1×PBS/1% BSA, the secondary antibody PE-labeled goat anti-mouse IgG was applied and incubated with cells at 4° C. for 1 hour. The cells were then washed and resuspended in 1×PBS/1% BSA. MFI of the cells was measured by a flow cytometer and analyzed by FlowJo (version 7.6.1).

[6] = molecular target: T6, Human PD-1 on CHO-S cells; test: FACS on CHO-S.hPro1.C6 cells
Description: The cells CHO-S.hPro1.C6 (2×10⁵ cells/well) were incubated with various concentrations of anti-PD-1 antibodies (4-fold serially diluted from 133.3 nM to 0.008 nM) at 4° C. for 1 hour. After washing with 1×PBS/1% BSA, the secondary antibody PE-labeled goat anti-human IgG was applied and incubated with cells at 4° C. for 1 hour. Anti-human PD-1 antibodies BMK1 and BMK3 were used as positive control. Human IgG4 isotype antibody was used as negative control. The cells were then washed and resuspended in 1×PBS/1% BSA. MFI of the cells was measured by a flow cytometer (BD) and analyzed by FlowJo (version 7.6.1).

T6 sequence (Q15116 25-288): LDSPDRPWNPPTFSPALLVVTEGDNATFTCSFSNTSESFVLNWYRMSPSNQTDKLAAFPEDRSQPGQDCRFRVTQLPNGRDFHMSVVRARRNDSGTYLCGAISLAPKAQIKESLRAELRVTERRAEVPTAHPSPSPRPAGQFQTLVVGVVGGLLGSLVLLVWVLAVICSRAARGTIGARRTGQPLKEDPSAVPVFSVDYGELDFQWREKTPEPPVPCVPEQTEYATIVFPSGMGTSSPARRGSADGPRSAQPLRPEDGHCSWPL
T5 sequence (P10747 19-152): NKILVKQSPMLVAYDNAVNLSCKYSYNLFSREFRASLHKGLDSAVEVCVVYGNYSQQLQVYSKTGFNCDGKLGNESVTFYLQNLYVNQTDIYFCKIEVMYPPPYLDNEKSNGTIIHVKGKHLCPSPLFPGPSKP

| Binder | IC50 (Mouse PD-1 on 293F cells) | binding result [1] | binding result [2] | binding result [3] | binding result [4] | IC50 [5] | EC50 [6] |
| --- | --- | --- | --- | --- | --- | --- | --- |
| W3056-AP17R1-2H2-FC(IgG4.SP) (Fc fusion, VHH fused to Fc of human IgG4 S228P; also called W3056 lead parental antibody (VHH-Fc(hIgG4) fusion); not shown: Fc of human IgG4 (hIgG4.S228P)) QVQLVESGGGLVQPGGSLRLSCAASDSIDSLVNMGWYRQAPGKQRELVALIANYITHYADFVKGRFTISRDAAKNTVNLQMSSLKPEDTAVYYCYARNIIVDYWGQGTQVTVSS | 22.1 nM | no binding (tested: 100 nM) | no binding (tested: 100 nM) | no binding (tested: 100 nM) | no binding (tested: 100 nM) | 1 nM | 1.87 nM |
| W3056-AP17R1-2H2-Z1-R1-14A1-FC(IgG4.SP) (Fc fusion, also called W3056 lead antibody (VHH-Fc(hIgG4) fusion); not shown: Fc of human IgG4 (hIgG4.S228P)) QVQLVESGGGVVQPGGSLRLSCAASDSIDSLVNMGWYRQAPGKQRELVALIATYITHYADFVKGRFTISRDNSKNTLYLQMNSLRAEDTAVYYCYARNIIVDYWGQGTLVTVSS | 10.2 nM | no binding (tested: 100 nM) | no binding (tested: 100 nM) | no binding (tested: 100 nM) | no binding (tested: 100 nM) | 0.655 nM | 0.612 nM |
